Publication doi:10.1101/2021.06.16.448687 (bioRxiv, 2021)

Target: the molecule itself
Assay: AUC

B1: stabilized H176C form of the soluble human LLT1 ectodomain (Gln72-Val191), glycosylated (domain or fragment, UniProt Q9UHP7 72-191, looked up)
chain: QAACPESWIGFQRKCFYFSDDTKNWTSSQRFCDSQDADLAQVESFQELNFLLRYKGPSDHWIGLSREQGQPWKWINGTEWTRQFPILGAGECAYLNDKGASSARCYTERKWICSKSDIHV
modifications: GlcNAc2Man5 N-glycans
- stoichiometry N: 2
